Assay results: US20030078374A1, “Complementary peptide ligands generated from the human genome” (priority 1999, published 2003)

Columns and labels:
IL-1 [1] = molecular target: T1, IL-1 (Homo sapiens, UniProt P01584); experiment: direct binding to IL-1 by biosensing techniques
IL-1β = IL-1β (Homo sapiens, UniProt P01584); experiment: two independent in vitro bioassays of IL-1β biological activity; format: cell-based; settings: effect dependent on the peptide sequence
Description: The programme identified the antisense region LITVLNI in the interleukin 1 type 1 receptor (IL-1R).
The effect is dependent on the peptide sequence.

IL-1 [2] = molecular target: T1, IL-1; experiment: Serum Amyloid IL-1 assay; format: cell-based

T1 sequence (P01584 117-269): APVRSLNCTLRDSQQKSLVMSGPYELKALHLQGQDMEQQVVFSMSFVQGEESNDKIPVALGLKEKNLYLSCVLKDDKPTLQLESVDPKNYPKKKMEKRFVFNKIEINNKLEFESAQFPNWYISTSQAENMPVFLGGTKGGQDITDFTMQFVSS
Sequence of IL-1β (P01584 117-269): as above

- direct binding to IL-1 (IL-1 [1]): shown to bind directly to IL-1
- inhibition of IL-1 activity (same effect) in Serum Amyloid IL-1 assay (IL-1 [2]): same effect is also seen
Substance: LITVLNI [antisense region in the interleukin 1 type 1 receptor (IL-1R) identified by the programme]
- inhibition of the biological activity of IL-1β (IL-1β): shown to inhibit the biological activity of IL-1β
